This note sets out measurements from patent US20260234260A1 (EUCURE BEIJING BIOPHARMA, published 2026).

The target of assay [1] is human PD-1 expressed on cells (Jurkat-Luc-hPD-1, CHO-K1-hPD1, Jurkat-hPD1) (human, UniProt Q15116 25-288). In words: cell-based or functional assay.
Assay [2] has as its target T1, neonatal Fc receptor (FcRn).
T1 construct: Analyte in Biacore
Nature of the assay: SPR (Biacore), antibody captured, FcRn as analyte. On the procedure:
The binding affinity to neonatal Fc receptor (FcRn) was determined by Biacore® systems.

In assay [3] the target is T2, human PD-1/PDCD1 protein, His Tag (ACRO Biosystems Cat #PD1-H5221) (human, UniProt Q15116 25-167).
T2 construct: Bought protein; also called hPD-1; human PD-1 protein; not shown: His tag
Nature of the assay: SPR (Biacore), antibody captured, His-tagged hPD-1 in solution.

Assay [4] concerns the target T3, human CD40 expressed on Jurkat-Luc-hCD40 reporter cells (human, UniProt P25942 21-277). In words: cell-based or functional assay.
Assay [5] deals with T4, human CD40/TNFRSF5 Protein, His Tag (ACRO Biosystems Cat #CD0-H5228) (human, UniProt P25942 21-193).
T4 construct: Bought protein; also called hCD40; human CD40 protein; not shown: His tag
Nature of the assay: SPR (Biacore), hCD40. On the procedure: The binding affinity to human […] (hCD40) was determined by Biacore systems.

The target in assay [6] is T3, human CD40 expressed on …. Nature of the assay: cell-based or functional assay. This is another data set of the same source.
In assay [7] the target is T3, human CD40 expressed on …. In words: cell-based or functional assay. The source holds these as a separate data set.
The target of assay [8] is T3, human CD40 expressed on …. In words: cell-based or functional assay. The source holds these as a separate data set.
In assay [9] the target is T4, human CD40/TNFRSF5 Protein, His Tag …. In words: SPR (Biacore), antibody captured, His-tagged hCD40 in solution.
Assay [10] deals with T3, human CD40 expressed on …. In words: cell-based or functional assay. The source holds these as a separate data set.
Assay [11] concerns the target T3, human CD40 expressed on …. In words: cell-based or functional assay. This is another data set of the same source.
Assay [12] deals with T3, human CD40 expressed on …. In words: cell-based or functional assay. The source holds these as a separate data set.

Where two headings read alike, the source gives them in different places.

T4 sequence (P25942 21-193 limits assumed): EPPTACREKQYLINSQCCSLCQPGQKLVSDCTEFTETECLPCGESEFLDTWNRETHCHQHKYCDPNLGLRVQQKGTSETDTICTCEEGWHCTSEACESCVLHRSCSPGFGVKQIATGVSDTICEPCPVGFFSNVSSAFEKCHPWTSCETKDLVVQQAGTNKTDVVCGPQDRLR
T3 sequence (P25942 21-277 limits assumed): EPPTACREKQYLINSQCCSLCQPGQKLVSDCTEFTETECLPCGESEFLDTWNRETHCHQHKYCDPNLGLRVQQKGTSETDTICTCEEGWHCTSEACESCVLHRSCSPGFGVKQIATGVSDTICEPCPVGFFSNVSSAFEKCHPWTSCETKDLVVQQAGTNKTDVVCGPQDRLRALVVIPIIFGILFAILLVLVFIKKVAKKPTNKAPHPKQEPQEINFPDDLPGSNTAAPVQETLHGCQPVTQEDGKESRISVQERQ
T2 sequence (Q15116 25-167 limits assumed): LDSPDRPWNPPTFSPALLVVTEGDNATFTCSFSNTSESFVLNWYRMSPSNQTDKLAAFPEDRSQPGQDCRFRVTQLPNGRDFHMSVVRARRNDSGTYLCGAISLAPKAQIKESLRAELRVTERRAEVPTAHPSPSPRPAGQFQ
human PD-1 expressed on cells (Jurkat-Luc-hPD-1, CHO-K1-hPD1, Jurkat-hPD1), sequence (Q15116 25-288 limits assumed): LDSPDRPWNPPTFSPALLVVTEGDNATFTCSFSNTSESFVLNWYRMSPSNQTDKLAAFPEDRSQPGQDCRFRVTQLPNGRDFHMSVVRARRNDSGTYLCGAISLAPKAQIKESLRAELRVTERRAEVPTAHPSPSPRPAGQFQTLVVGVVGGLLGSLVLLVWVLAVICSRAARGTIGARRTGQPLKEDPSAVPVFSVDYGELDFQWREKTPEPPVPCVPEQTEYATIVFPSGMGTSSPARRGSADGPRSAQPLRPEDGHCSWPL
T1 sequence (P55899 24-297, chain 1 of 2): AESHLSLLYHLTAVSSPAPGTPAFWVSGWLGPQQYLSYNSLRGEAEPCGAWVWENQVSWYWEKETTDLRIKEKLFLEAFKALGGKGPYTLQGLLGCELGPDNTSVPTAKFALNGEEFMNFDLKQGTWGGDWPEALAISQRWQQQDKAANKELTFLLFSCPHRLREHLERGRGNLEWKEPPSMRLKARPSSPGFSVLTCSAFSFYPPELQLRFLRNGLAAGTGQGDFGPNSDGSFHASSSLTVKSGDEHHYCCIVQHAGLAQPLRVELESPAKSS
T1 sequence (P61769 21-119, chain 2 of 2, further chain): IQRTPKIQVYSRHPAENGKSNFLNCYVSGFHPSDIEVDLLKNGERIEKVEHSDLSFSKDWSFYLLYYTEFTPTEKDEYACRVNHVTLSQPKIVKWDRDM

B1: anti-PD-1 monoclonal antibody 1A7-H2K3-IgG4 (antibody)
VH: EVQLVESGGGLVQPGGSLRLSCAASGFTFSSYSMSWVRQAPGKRLEWVAHISSGGSSTYYPDTVKGRFTISRDNSKNTLYLQMNSLRAEDTAMYYCTRQFYYGSSFWYFDVWGAGTTVTVSS
light: DNVLTQSPATLSVSPGERATLSCKASQSVDFDGDSYMNWYQQKPGQPPRLLIYAASNLESGIPARFSGSGSGTDFTLTISSVEPEDFATYYCQQSNEDPPTFGGGTKVEIKRTVAAPSVFIFPPSDEQLKSGTASVVCLLNNFYPREAKVQWKVDNALQSGNSQESVTEQDSKDSTYSLSSTLTLSKADYEKHKVYACEVTHQGLSSPVTKSFNRGEC
notes: IgG4; also called PD-1 (1A7-H2K3-IgG4); PD1-1A7-H2K3-IgG4
Take B1: the “EC50 Value (ug/ml), luminescence of Jurkat-Luc-hPD-1 effector cells co-cultured with CHO-aAPC-hPD-L1 cells” value (“EC50 Value (ug/ml) … with CHO-aAPC-hPD-L1 cells” below) in assay [1] came to 5.61 µg/mL. In assay [2], the affinity, expressed as Kd, was 2210 nM. In assay [3], this molecule came in with a Kd of 8.56 nM, a koff of 0.00125 s⁻¹ and a kon of 146000 M⁻¹ s⁻¹.

B2: PD1-C40-6A7-FV3A (bispecific antibody, human IgG4 S228P, kappa)
heavy: EVQLVESGGGLVQPGGSLRLSCAASGFTFSSYSMSWVRQAPGKRLEWVAHISSGGSSTYYPDTVKGRFTISRDNSKNTLYLQMNSLRAEDTAMYYCTRQFYYGSSFWYFDVWGAGTTVTVSSASTKGPSVFPLAPCSRSTSESTAALGCLVKDYFPEPVTVSWNSGALTSGVHTFPAVLQSSGLYSLSSVVTVPSSSLGTKTYTCNVDHKPSNTKVDKRVESKYGPPCPPCPAPEFLGGPSVFLFPPKPKDTLMISRTPEVTCVVVDVSQEDPEVQFNWYVDGVEVHNAKTKPREEQFNSTYRVVSVLTVLHQDWLNGKEYKCKVSNKGLPSSIEKTISKAKGQPREPQVYTLPPSQEEGGGGSGGGGSDVVMTQSPLSLPVTLGQPASISCRSSQSLLHSNGNTYLHWYQQRPGQSPNHLIYQVSNRFSGVPDRFSGSGSGTDFTLKISRVEAEDVGVYFCSQTTHVPWTFGCGTKVEIKGGGGSGGGGSGGGGSGGGGSQVQLVQSGAEVKKPGASVKLSCKASGYTFISYYIYWVKQAPGQCLEWIGGINPRNGGTNFNEKFKSRATLTVDTSISTAYMELSRLRSEDTAVYYCTRHGNGVYWGQGTTLTVSSGGGGSGGGGSVSLTCLVKGFYPSDIAVEWESNGQPENNYKTTPPVLDSDGSFFLYSRLTVDKSRWQEGNVFSCSVMHEALHNHYTQKSLSLSPGK
light: DNVLTQSPATLSVSPGERATLSCKASQSVDFDGDSYMNWYQQKPGQPPRLLIYAASNLESGIPARFSGSGSGTDFTLTISSVEPEDFATYYCQQSNEDPPTFGGGTKVEIKRTVAAPSVFIFPPSDEQLKSGTASVVCLLNNFYPREAKVQWKVDNALQSGNSQESVTEQDSKDSTYSLSSTLTLSKADYEKHKVYACEVTHQGLSSPVTKSFNRGEC
notes: Anti-CD40 scFv (6A7) fused into each heavy chain CH3 domain at positions 358-362 (EU numbering) of the anti-PD-1 antibody 1A7-H2K3-IgG4
Regarding B2, the “EC50 (read off the curve), luciferase Rlu, Jurkat-Luc-hCD40 reporter cells with CHO-K1-hPD-1 basal cells” value in [4] was ~0.03 mg/L. For the same molecule, the Kd in assay [2] was determined as 1680 nM. In [5], this molecule yielded a Kd of 0.419 nM, a koff of 0.000255 s⁻¹ and a kon of 608000 M⁻¹ s⁻¹.

B3: Fab-ScFV-IgG4 (bispecific antibody)
heavy: EVQLVESGGGLVQPGGSLRLSCAASGFTFSSYSMSWVRQAPGKRLEWVAHISSGGSSTYYPDTVKGRFTISRDNSKNTLYLQMNSLRAEDTAMYYCTRQFYYGSSFWYFDVWGAGTTVTVSSASTKGPSVFPLAPCSRSTSESTAALGCLVKDYFPEPVTVSWNSGALTSGVHTFPAVLQSSGLYSLSSVVTVPSSSLGTKTYTCNVDHKPSNTKVDKRVESKYGPPCPPCPAPEFLGGPSVFLFPPKPKDTLMISRTPEVTCVVVDVSQEDPEVQFNWYVDGVEVHNAKTKPREEQFNSTYRVVSVLTVLHQDWLNGKEYKCKVSNKGLPSSIEKTISKAKGQPREPQVYTLPPCQEEMTKNQVSLWCLVKGFYPSDIAVEWESNGQPENNYKTTPPVLDSDGSFFLYSRLTVDKSRWQEGNVFSCSVMHEALHNHYTQKSLSLSLGK
light: DNVLTQSPATLSVSPGERATLSCKASQSVDFDGDSYMNWYQQKPGQPPRLLIYAASNLESGIPARFSGSGSGTDFTLTISSVEPEDFATYYCQQSNEDPPTFGGGTKVEIKRTVAAPSVFIFPPSDEQLKSGTASVVCLLNNFYPREAKVQWKVDNALQSGNSQESVTEQDSKDSTYSLSSTLTLSKADYEKHKVYACEVTHQGLSSPVTKSFNRGEC
chain: QVQLVQSGAEVKKPGASVKLSCKASGYTFISYYIYWVKQAPGQCLEWIGGINPRNGGTNFNEKFKSRATLTVDTSISTAYMELSRLRSEDTAVYYCTRHGNGVYWGQGTTLTVSSASTGGGGSGGGGSGGGGSGGGGSDVVMTQSPLSLPVTLGQPASISCRSSQSLLHSNGNTYLHWYQQRPGQSPNHLIYQVSNRFSGVPDRFSGSGSGTDFTLKISRVEAEDVGVYFCSQTTHVPWTFGCGTKVEIKDKRVESKYGPPCPPCPAPEFLGGPSVFLFPPKPKDTLMISRTPEVTCVVVDVSQEDPEVQFNWYVDGVEVHNAKTKPREEQFNSTYRVVSVLTVLHQDWLNGKEYKCKVSNKGLPSSIEKTISKAKGQPREPQVCTLPPSQEEMTKNQVSLSCAVKGFYPSDIAVEWESNGQPENNYKTTPPVLDSDGSFFLVSRLTVDKSRWQEGNVFSCSVMHEALHNHYTQKSLSLSLGK
notes: Anti-PD-1 arm (1A7-H2K3 heavy and light chain, IgG4 with KIH) and anti-CD40 arm (6A7-H4K2 scFv joined to IgG4 CH2-CH3 with KIH)
On to B3, for which the “EC50 (read off the curve), luciferase Rlu, Jurkat-Luc-hCD40 reporter cells with CHO-K1-hPD-1 basal cells” value in [4] is ~0.04 mg/L. For the same molecule, the “EC50 Value (ug/ml) … with CHO-aAPC-hPD-L1 cells” value in assay [1] was determined as 23.4 µg/mL. In assay [6], the “EC50 Value (ug/ml), luminescence of Jurkat-Luc-hCD40 reporter cells in the presence of CHO-K1-hFcγRIIB basal cells” value worked out at 0.0543 µg/mL. Besides, the “EC50 (read off the curve), luciferase Rlu, Jurkat-Luc-hCD40 reporter cells with CHO-K1-hFcγRIIB basal cells” value in assay [7] is ~0.05 mg/L. For the same molecule, in assay [8], the “EC50 Value (ug/ml), luminescence of Jurkat-Luc-hCD40 reporter cells in the presence of CHO-K1-hPD1 basal cells” value is 0.0103 µg/mL. In assay [9], this molecule displayed a Kd of 1.75 nM, a koff of 0.0005 s⁻¹ and a kon of 285000 M⁻¹ s⁻¹. Further, in [3], the dissociation constant Kd was 9.78 nM, the koff worked out at 0.00117 s⁻¹ and the kon came out at 120000 M⁻¹ s⁻¹.

B4: ScFV-HC-IgG4 (bispecific antibody)
heavy: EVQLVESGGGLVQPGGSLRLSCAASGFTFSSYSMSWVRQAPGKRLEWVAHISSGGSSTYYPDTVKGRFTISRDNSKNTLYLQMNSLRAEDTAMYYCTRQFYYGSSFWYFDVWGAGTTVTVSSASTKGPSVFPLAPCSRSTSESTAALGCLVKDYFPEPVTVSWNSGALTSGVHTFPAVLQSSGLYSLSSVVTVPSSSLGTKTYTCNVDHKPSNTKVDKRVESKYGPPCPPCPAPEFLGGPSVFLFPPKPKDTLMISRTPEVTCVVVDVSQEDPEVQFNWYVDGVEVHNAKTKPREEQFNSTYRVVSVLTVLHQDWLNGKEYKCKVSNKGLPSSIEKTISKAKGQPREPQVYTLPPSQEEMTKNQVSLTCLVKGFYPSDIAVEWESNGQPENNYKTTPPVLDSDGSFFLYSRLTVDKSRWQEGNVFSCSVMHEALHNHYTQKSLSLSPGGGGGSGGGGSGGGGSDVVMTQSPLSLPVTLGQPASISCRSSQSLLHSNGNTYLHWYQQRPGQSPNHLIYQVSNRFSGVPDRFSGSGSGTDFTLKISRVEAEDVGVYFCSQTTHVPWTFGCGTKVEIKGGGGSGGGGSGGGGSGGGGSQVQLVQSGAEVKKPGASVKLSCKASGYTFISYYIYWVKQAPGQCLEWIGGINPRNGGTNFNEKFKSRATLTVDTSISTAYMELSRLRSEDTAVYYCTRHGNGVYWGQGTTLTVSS
light: DNVLTQSPATLSVSPGERATLSCKASQSVDFDGDSYMNWYQQKPGQPPRLLIYAASNLESGIPARFSGSGSGTDFTLTISSVEPEDFATYYCQQSNEDPPTFGGGTKVEIKRTVAAPSVFIFPPSDEQLKSGTASVVCLLNNFYPREAKVQWKVDNALQSGNSQESVTEQDSKDSTYSLSSTLTLSKADYEKHKVYACEVTHQGLSSPVTKSFNRGEC
notes: Anti-CD40 scFv (6A7-H4K2) joined to the C-terminus of each heavy chain of the anti-PD-1 antibody 1A7-H2K3, IgG4
Turning to B4, in [1], the “EC50 Value (ug/ml) … with CHO-aAPC-hPD-L1 cells” value was 4.36 µg/mL. For the same molecule, the “EC50 Value (ug/ml), luminescence of Jurkat-Luc-hCD40 reporter cells in the presence of Jurkat-hPD1 basal cells” value in [10] is 0.0079 µg/mL. In addition, the “EC50 Value (ug/ml), luminescence of Jurkat-Luc-hCD40 reporter cells in the presence of CHO-K1-hPD1 basal cells” value in assay [8] came out at 0.0108 µg/mL. In [9], binding was characterised by a dissociation constant (Kd) of 1.3 nM, the dissociation rate constant (koff) came to 0.00034 s⁻¹ and the kon came to 261000 M⁻¹ s⁻¹. In assay [3], this molecule yielded a Kd of 8.28 nM, a koff of 0.00122 s⁻¹ and a kon of 148000 M⁻¹ s⁻¹.

B5: 1A7-selicrelumab-FV3A-IgG4 (bispecific antibody)
heavy: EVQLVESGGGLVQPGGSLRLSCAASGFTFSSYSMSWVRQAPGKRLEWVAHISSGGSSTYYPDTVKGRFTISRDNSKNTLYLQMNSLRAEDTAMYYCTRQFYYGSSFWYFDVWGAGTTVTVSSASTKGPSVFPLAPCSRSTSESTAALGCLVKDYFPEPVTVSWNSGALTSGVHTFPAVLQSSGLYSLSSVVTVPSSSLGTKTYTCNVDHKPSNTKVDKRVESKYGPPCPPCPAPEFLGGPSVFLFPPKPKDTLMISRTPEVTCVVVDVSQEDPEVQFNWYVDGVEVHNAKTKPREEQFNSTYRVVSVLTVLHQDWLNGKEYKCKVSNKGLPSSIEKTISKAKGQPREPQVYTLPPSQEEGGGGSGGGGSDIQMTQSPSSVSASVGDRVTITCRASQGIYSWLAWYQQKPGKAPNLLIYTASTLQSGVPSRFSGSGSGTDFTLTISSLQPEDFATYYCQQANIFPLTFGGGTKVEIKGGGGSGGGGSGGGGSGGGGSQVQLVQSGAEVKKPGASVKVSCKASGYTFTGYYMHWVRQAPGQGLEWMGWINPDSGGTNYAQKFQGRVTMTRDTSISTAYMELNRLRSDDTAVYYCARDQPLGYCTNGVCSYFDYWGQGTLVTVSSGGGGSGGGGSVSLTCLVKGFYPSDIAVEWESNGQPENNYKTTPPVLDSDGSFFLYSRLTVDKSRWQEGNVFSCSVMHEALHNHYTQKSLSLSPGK
light: DNVLTQSPATLSVSPGERATLSCKASQSVDFDGDSYMNWYQQKPGQPPRLLIYAASNLESGIPARFSGSGSGTDFTLTISSVEPEDFATYYCQQSNEDPPTFGGGTKVEIKRTVAAPSVFIFPPSDEQLKSGTASVVCLLNNFYPREAKVQWKVDNALQSGNSQESVTEQDSKDSTYSLSSTLTLSKADYEKHKVYACEVTHQGLSSPVTKSFNRGEC
On to B5, for which the “EC50 (read off the curve)” value in assay [11] was ~0.3 mg/L.

B6: ScFV-HC-IgG1-LALA (bispecific antibody)
heavy: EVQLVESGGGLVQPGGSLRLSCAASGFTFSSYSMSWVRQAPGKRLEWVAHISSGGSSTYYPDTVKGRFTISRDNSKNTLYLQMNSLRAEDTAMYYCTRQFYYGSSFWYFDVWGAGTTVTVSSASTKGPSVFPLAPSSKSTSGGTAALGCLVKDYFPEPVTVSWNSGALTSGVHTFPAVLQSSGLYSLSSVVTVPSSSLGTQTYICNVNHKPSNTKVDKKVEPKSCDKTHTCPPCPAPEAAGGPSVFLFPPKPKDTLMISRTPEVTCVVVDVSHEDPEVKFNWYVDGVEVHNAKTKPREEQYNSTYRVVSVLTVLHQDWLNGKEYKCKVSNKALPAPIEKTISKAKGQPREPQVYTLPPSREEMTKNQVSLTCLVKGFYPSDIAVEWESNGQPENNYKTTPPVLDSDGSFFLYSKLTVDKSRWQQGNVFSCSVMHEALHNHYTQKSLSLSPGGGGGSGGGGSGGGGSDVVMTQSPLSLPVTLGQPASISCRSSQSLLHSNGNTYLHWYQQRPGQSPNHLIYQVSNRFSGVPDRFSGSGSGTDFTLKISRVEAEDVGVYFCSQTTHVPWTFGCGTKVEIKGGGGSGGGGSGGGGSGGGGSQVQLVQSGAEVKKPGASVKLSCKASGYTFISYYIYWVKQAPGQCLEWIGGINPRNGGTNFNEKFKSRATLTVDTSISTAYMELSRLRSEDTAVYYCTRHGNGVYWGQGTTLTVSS
light: DNVLTQSPATLSVSPGERATLSCKASQSVDFDGDSYMNWYQQKPGQPPRLLIYAASNLESGIPARFSGSGSGTDFTLTISSVEPEDFATYYCQQSNEDPPTFGGGTKVEIKRTVAAPSVFIFPPSDEQLKSGTASVVCLLNNFYPREAKVQWKVDNALQSGNSQESVTEQDSKDSTYSLSSTLTLSKADYEKHKVYACEVTHQGLSSPVTKSFNRGEC
As for B6, the “EC50 Value (ug/ml), luminescence of Jurkat-Luc-hCD40 reporter cells in the presence of Jurkat-hPD1 basal cells” value in assay [10] came to 0.0065 µg/mL.

B7: Pembrolizumab-Seli-FVHC-IgG4 (bispecific antibody)
heavy: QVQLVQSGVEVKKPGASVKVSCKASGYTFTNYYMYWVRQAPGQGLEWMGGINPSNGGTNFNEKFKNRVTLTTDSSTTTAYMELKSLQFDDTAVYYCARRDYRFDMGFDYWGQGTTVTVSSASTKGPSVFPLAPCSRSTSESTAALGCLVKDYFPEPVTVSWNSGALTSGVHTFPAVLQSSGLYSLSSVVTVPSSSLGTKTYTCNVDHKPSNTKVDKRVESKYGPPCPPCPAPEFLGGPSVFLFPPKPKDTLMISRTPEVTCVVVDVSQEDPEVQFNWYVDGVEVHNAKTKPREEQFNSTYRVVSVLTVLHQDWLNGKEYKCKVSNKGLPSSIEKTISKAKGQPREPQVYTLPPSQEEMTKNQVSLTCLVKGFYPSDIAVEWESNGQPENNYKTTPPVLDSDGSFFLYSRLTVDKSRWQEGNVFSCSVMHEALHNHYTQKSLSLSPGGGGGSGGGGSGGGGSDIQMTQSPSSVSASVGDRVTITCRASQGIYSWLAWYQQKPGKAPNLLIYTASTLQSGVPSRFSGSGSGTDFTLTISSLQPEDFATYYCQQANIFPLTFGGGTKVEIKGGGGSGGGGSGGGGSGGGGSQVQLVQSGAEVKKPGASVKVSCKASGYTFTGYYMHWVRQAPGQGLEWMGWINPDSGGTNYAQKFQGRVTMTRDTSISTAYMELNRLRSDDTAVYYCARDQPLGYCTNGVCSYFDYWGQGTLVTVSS
light: EIVLTQSPATLSLSPGERATLSCRASKGVSTSGYSYLHWYQQKPGQAPRLLIYLASYLESGVPARFSGSGSGTDFTLTISSLEPEDFAVYYCQHSRDLPLTFGGGTKVEIKRTVAAPSVFIFPPSDEQLKSGTASVVCLLNNFYPREAKVQWKVDNALQSGNSQESVTEQDSKDSTYSLSSTLTLSKADYEKHKVYACEVTHQGLSSPVTKSFNRGEC
Regarding B7, the “EC50 (read off the curve)” value in assay [11] is ~0.1 mg/L.

B8: Pembrolizumab-6A7-HC-IgG1-LALA (bispecific antibody)
heavy: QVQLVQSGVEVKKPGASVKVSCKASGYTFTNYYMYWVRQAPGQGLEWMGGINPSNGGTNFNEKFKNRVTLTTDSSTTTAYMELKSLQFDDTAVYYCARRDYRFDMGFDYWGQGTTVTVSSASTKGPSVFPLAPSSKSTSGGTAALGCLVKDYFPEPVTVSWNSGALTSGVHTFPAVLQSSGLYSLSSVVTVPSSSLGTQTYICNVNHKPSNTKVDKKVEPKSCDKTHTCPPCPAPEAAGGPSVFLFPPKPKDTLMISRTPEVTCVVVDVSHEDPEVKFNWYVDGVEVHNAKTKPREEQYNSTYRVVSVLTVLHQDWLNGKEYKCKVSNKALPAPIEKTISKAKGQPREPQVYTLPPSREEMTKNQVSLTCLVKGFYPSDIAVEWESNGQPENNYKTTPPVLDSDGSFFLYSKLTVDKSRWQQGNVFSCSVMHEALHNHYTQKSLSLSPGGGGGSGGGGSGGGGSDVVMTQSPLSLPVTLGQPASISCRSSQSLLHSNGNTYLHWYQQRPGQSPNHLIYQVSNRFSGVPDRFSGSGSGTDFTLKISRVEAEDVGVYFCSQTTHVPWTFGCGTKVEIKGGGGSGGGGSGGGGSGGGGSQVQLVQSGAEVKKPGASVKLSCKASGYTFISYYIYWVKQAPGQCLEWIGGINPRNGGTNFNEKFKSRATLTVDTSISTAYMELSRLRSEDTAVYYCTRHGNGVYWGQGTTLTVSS
light: EIVLTQSPATLSLSPGERATLSCRASKGVSTSGYSYLHWYQQKPGQAPRLLIYLASYLESGVPARFSGSGSGTDFTLTISSLEPEDFAVYYCQHSRDLPLTFGGGTKVEIKRTVAAPSVFIFPPSDEQLKSGTASVVCLLNNFYPREAKVQWKVDNALQSGNSQESVTEQDSKDSTYSLSSTLTLSKADYEKHKVYACEVTHQGLSSPVTKSFNRGEC
For the molecule B8, the “EC50 (read off the curve)” value in assay [12] was ~0.07 mg/L.

B9: Pembrolizumab-APX005M-FVHC-IgG4 (bispecific antibody)
heavy: not shown
light: EIVLTQSPATLSLSPGERATLSCRASKGVSTSGYSYLHWYQQKPGQAPRLLIYLASYLESGVPARFSGSGSGTDFTLTISSLEPEDFAVYYCQHSRDLPLTFGGGTKVEIKRTVAAPSVFIFPPSDEQLKSGTASVVCLLNNFYPREAKVQWKVDNALQSGNSQESVTEQDSKDSTYSLSSTLTLSKADYEKHKVYACEVTHQGLSSPVTKSFNRGEC
Turning to B9, the 50% effective concentration (EC50 (read off the curve)) in assay [12] is ~0.2 mg/L.
